Test [1] addresses Bcl-xL, Q07817. Description: peptide SPOT array, c-Myc-tagged receptor at 1 uM or 100 nM, anti-c-Myc-Cy3.
Test [2] deals with T1, Bfl-1, Q16548.
T1 chain: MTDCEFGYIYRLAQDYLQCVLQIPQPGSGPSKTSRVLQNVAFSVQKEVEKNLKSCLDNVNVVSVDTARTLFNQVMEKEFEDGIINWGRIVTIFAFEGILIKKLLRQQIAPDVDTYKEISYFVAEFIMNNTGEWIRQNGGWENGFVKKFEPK
The description is as above.

In test [3] the target is T2, Mcl-1, Q07820.
T2 chain: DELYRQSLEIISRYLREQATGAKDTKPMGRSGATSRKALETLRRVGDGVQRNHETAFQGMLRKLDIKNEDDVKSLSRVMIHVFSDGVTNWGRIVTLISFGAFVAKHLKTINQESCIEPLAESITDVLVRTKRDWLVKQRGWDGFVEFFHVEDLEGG
The test is described as above.

Test [4] addresses T3, Bcl-w, Q92843.
T3 chain: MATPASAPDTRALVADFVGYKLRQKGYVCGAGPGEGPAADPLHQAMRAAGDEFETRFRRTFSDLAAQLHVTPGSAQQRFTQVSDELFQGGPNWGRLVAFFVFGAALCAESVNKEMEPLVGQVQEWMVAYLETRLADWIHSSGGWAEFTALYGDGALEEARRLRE
Description: fluorescence polarisation, direct titration of receptor into 10 nM labelled peptide. In general terms: Fluorescence polarisation rises when a labelled molecule tumbles more slowly, as on binding a larger partner.

Test [5] addresses T4, Bcl-2, P10415.
T4 chain: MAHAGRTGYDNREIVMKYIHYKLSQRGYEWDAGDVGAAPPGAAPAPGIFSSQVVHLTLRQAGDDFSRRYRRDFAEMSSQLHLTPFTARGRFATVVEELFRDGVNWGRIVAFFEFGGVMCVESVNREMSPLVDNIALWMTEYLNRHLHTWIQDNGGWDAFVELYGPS
The test is described as above.

For test [6], the target named is Bcl-xL, Q07817. Described as above.
For test [7], the target named is T1, Bfl-1, Q16548. Described as above.
The target of test [8] is T2, Mcl-1, Q07820. Described as above.
Test [9] deals with T3, Bcl-w, Q92843. Description: peptide SPOT array, c-Myc-tagged receptor at 1 uM or 100 nM, anti-c-Myc-Cy3.
Test [10] deals with Bcl-2, P10415. Described as above.
Target sequence in this assay (P10415 1-217): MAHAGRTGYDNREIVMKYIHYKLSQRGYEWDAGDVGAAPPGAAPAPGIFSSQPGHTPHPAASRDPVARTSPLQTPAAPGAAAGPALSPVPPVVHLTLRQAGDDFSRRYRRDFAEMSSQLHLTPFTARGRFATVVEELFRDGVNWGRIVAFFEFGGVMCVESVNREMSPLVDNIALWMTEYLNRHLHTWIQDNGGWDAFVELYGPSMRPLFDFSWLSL

Chain of Bcl-xL, Q07817 (Q07817 1-209): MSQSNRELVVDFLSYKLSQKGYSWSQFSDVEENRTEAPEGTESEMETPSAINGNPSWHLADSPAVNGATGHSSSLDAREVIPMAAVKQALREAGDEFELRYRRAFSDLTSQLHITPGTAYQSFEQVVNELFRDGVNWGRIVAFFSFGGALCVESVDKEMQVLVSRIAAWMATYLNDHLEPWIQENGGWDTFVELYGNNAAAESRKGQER

Regarding QRKHEGFERDLAALGDKVNSLGETAE [SPTAN1], the results for the SPOT signal as a fraction of Bim BH3's signal on the same receptor and array in test [1], in test [2] and in test [3] were 0.12, 0.13 and 0.27, respectively. Besides, the dissociation constant Kd in test [4] was over 4350 nM; in [5] it was over 3040 nM; in test [6] it was over 7000 nM; in [7], over 3370 nM; in test [8], 3850 nM.

As for LCQLSCVSKLMRDVCGSLLQSRGMVI [FBXO30], the results for the SPOT signal as a fraction of Bim BH3's signal on the same receptor and array in test [1], in test [2] and in test [3] were 0.62, 0.31 and 0.28, respectively. Besides, the Kd in test [4] was 3280 nM; in [5], 2560 nM; in test [6], over 10000 nM; in test [7], over 10000 nM; in test [8] it was over 10000 nM.

Regarding ADAIRPRCVELRHLCDDFINGNKKKW [MCF2L2], the SPOT signal as a fraction of Bim BH3's signal on the same receptor and array in test [1] was 1.38; in test [2], 0.29; in test [3], 0.22. In addition, the dissociation constant Kd in test [4] is 1120 nM; in test [5], 60 nM; in [6] it was 292 nM; in test [7], over 3370 nM; in test [8] it was over 4000 nM.

With VDSIRPKCQELRHLCDQFSAEIARRR [MCF2L], the SPOT signal as a fraction of Bim BH3's signal on the same receptor and array was 1.26 in test [1], 0.21 in [2] and 0.24 in test [3]. Also, the Kd was 7 nM in test [4]; 6 nM in test [5]; 4 nM in [6]; over 4100 nM in test [7]; over 4000 nM in [8].

For the molecule ISSYMVLAPVFGYLGDRYNRKYLMCG [SPNS1], the SPOT signal as a fraction of Bim BH3's signal on the same receptor and array was 1.64 in [1], 1.2 in test [2] and 1.15 in [3]. For the same molecule, the dissociation constant (Kd) in [4] was found to be 871 nM; in [5], 28 nM; in test [6], 96 nM; in test [7], 278 nM; in test [8], 19 nM.

Turning to LMARPAVALHFQSIADGFKEAVRYVL [SOS2], the SPOT signal as a fraction of Bim BH3's signal on the same receptor and array in test [1] was 0.85; in [2], 0.43; in [3] it was 1.08. Moreover, the Kd was 5380 nM in test [4]; 3290 nM in test [5]; over 6900 nM in [6]; over 3290 nM in test [7]; over 4000 nM in test [8].

For AELRLFLAQRLRWLCDSCPASRATCV [NBEAL2], the SPOT signal as a fraction of Bim BH3's signal on the same receptor and array stood at 1.24 in [1], 0.46 in test [2] and 1.01 in test [3]. Further, the equilibrium dissociation constant (Kd) was 29 nM in test [4]; 16 nM in [5]; 10 nM in test [6]; 3270 nM in test [7]; 3810 nM in test [8].

In the case of RVCPYYLSRNLKQQADIIFMPYNYLL [RTEL1], the figures for the SPOT signal as a fraction of Bim BH3's signal on the same receptor and array in test [1], in [2] and in test [3] were 2.13, 0.72 and 1.42, respectively. Besides, the Kd in [4] is over 100000 nM; in test [5], 342 nM; in test [6], 1380 nM; in [7] it was over 4000 nM; in test [8], over 4000 nM.

As to TRELQELARKLQELADASENLLTENT [TXNDC11], the SPOT signal as a fraction of Bim BH3's signal on the same receptor and array is 0.27 in test [9]; 0.01 in test [10]; 0.04 in test [1]; 0.01 in test [2]; 0.01 in test [3]. Besides, the Kd was 249 nM in test [4]; 86 nM in [5]; 1490 nM in [6]; over 10000 nM in test [7]; 2380 nM in test [8].

As to AIILCNVCGNLCTDCDRFLHLHRRTK [MYCBP2], the values for the SPOT signal as a fraction of Bim BH3's signal on the same receptor and array in test [1], in test [2] and in test [3] were 0.8, 0.54 and 0.29, respectively. For the same molecule, the dissociation constant (Kd) in test [4] was 4060 nM; in [5] it was 1180 nM; in test [6], over 10000 nM; in test [7], over 3370 nM; in [8], over 10000 nM.

On to FSKREKLVEILRNIGDERTMVFVETK [DDX4], for which the SPOT signal as a fraction of Bim BH3's signal on the same receptor and array amounted to 0.14 in test [1], 0.1 in [2] and 0.35 in test [3]. In addition, the Kd in test [4] is over 4350 nM; in [5], over 3040 nM; in [6], over 4000 nM; in test [7] it was over 3370 nM; in test [8] it was 142 nM.

For the molecule TRRSMVFARHLREVGDEFRSRHLNST [POFUT2], the SPOT signal as a fraction of Bim BH3's signal on the same receptor and array worked out at 1.91 in [1], 0.75 in test [2] and 1.67 in [3]. Moreover, the dissociation constant Kd was 98 nM in test [4]; 98 nM in test [5]; 39 nM in test [6]; over 2280 nM in test [7]; over 10000 nM in [8].

With FVGYNSTGAELRHWSDMLANPRRPIA [SYT1], the SPOT signal as a fraction of Bim BH3's signal on the same receptor and array in [1] came to 1.41; in test [2], 0.37; in test [3], 0.32. In addition, the Kd was over 4350 nM in test [4]; over 100000 nM in test [5]; over 6900 nM in test [6]; over 3370 nM in [7]; over 4000 nM in test [8].

One may read the Kd as the equilibrium constant for the complex coming apart.

Values taken from article PMC4072508, “Genome-Wide Prediction and Validation of Peptides That Bind Human Prosurvival Bcl-2 Proteins” (PLoS Computational Biology, 2014).
